The target of data set [1] is TRIM21 coiled-coil (CC235) (human) (UniProt P19474). The experiment in a line: SEC-MALS. In general terms: In gel filtration, larger molecules generally elute earlier.
For data set [2] the target is unchanged. Put plainly: ITC. In general terms: Isothermal titration calorimetry measures the heat released or taken up as one component is titrated into another.
The data set “SAXS” deals with the molecule itself. The experiment in a line: SAXS.

The term stoichiometry N denotes the number of molecules, sites or subunits per partner or assembly. In general, Kd refers to the constant that tells how readily two partners part at equilibrium. Take “TRIM21 coiled-coil (CC235) (from UniProt P19474 132-235) (domain or fragment)”: the stoichiometry N in data set [1] was found to be 2. In data set [2], this molecule registered a Kd of 7 µM and a dH (dimer dissociation) of 65 kcal/mol.

B1: MBP-T21CC (MBPCC235) (domain or fragment, human, UniProt P19474 132-235, looked up)
chain: AQEYQEKLQVALGELRRKQELAEKLEVEIAIKRADWKKTVETQKSRIHAEFVQQKNFLVEEEQRQLQELEKDEREQLRILGEKEAKLAQQSQALQELISELDRR
In the case of B1, in the data set “SAXS”, the “stoichiometry N” value amounted to 2.

The values are drawn from paper doi:10.1101/2020.07.28.225359 (bioRxiv, 2020).
